{
  "source": "patent US20210393685A1",
  "about": "(TRUSTEES OF COLUMBIA UNIVERSITY IN THE CITY OF NEW YORK, published 2021)",
  "molecular_target": "T1, CD33 on cord blood CD34+ cells (human, UniProt P20138 18-364)",
  "T1 construct": "whole, on cells; also called CD33 antigen",
  "T1 sequence (P20138 18-364)": "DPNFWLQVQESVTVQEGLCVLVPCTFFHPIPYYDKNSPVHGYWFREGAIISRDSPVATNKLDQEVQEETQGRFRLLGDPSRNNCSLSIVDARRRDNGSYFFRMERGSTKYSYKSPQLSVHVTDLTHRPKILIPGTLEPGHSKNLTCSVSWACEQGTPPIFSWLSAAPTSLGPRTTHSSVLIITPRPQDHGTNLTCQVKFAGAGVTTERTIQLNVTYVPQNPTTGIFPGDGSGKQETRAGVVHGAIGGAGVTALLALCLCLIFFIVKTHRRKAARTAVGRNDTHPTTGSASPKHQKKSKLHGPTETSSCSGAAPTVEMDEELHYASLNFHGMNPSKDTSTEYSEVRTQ",
  "assay": "flow cytometry on CD33-expressing cord blood CD34+ cells, detected with FITC anti-Myc antibody",
  "description": "The binding of the anti-CD33-ULBP1 chimera with CD33 antigen-expressing cord blood CD34+ cells or NKG2D-expressing primary NK cells was tested using flow cytometry. Briefly, primary NK cells were purified from peripheral blood of donors. CD34+ cells were purified from cord blood of donors. Purified cells were incubated with the elute from the mock, chimera 1 or chimera 2 proteins purified from the cell supernatant. The cells were also incubated with FITC-conjugated anti-Myc antibody and analyzed using a flow cytometer.",
  "data": [
    {"binder": "anti-CD33-ULBP1 chimera 1 (CD33-ULBP1-1) (other, also called αCD33-ULBP1 chimera 1) EIVLTQSPGSLAVSPGERVTMSCKSSQSVFFSSSQKNYLAWYQQIPGQSPRLLIYWASTRESGVPDRFTGSGSGTDFTLTISSVQPEDLAIYYCHQYLSSRTFGQGTKLEIKRGSTSGSGKPGSGEGSTKGQVQLQQPGAEVVKPGASVKMSCKASGYTFTSYYIHWIKQTPGQGLEWVGVIYPGNDDISYNQKFQGKATLTADKSSTTAYMQLSSLTSEDSAVYYCAREVRLRYFDVWGQGTTVTVSSSSSAGGGGSGGGGSGGGGSWVDTHCLCYDFIITPKSRPEPQWCEVQGLVDERPFLHYDCVNHKAKAFASLGKKVNVTKTWEEQTETLRDVVDFLKGQLLDIQVENLIPIEPLTLQARMSCEHEAHGHGRGSWQFLFNGQKFLLFDSNNRKWTALHPGAKKMTEKWEKNRDVTMFFQKISLGDCKMWLEEFLMYWEQMLDPTKPPSLAPGEQKLISEEDLHHHHHH", "values": [
      {"measurement": "binding result", "result": "binds"}
    ]},
    {"binder": "anti-CD33-ULBP1 chimera 2 (CD33-ULBP1-2, with proline) (other, also called αCD33-ULBP1 chimera 2) EIVLTQSPGSLAVSPGERVTMSCKSSQSVFFSSSQKNYLAWYQQIPGQSPRLLIYWASTRESGVPDRFTGSGSGTDFTLTISSVQPEDLAIYYCHQYLSSRTFGQGTKLEIKRGSTSGSGKPGSGEGSTKGQVQLQQPGAEVVKPGASVKMSCKASGYTFTSYYIHWIKQTPGQGLEWVGVIYPGNDDISYNQKFQGKATLTADKSSTTAYMQLSSLTSEDSAVYYCAREVRLRYFDVWGQGTTVTVSSSSSAGGGGSGGGGSGGGGSPWVDTHCLCYDFIITPKSRPEPQWCEVQGLVDERPFLHYDCVNHKAKAFASLGKKVNVTKTWEEQTETLRDVVDFLKGQLLDIQVENLIPIEPLTLQARMSCEHEAHGHGRGSWQFLFNGQKFLLFDSNNRKWTALHPGAKKMTEKWEKNRDVTMFFQKISLGDCKMWLEEFLMYWEQMLDPTKPPSLAPGEQKLISEEDLHHHHHH", "values": [
      {"measurement": "binding result", "result": "binds"}
    ]}
  ]
}
